Experimental data from PMC11140114.

Biological target: recombinant human dynamin-related protein 1 (Drp1), isoform 1 (human) (UniProt O00429)
Sequence (O00429 whole entry, canonical isoform): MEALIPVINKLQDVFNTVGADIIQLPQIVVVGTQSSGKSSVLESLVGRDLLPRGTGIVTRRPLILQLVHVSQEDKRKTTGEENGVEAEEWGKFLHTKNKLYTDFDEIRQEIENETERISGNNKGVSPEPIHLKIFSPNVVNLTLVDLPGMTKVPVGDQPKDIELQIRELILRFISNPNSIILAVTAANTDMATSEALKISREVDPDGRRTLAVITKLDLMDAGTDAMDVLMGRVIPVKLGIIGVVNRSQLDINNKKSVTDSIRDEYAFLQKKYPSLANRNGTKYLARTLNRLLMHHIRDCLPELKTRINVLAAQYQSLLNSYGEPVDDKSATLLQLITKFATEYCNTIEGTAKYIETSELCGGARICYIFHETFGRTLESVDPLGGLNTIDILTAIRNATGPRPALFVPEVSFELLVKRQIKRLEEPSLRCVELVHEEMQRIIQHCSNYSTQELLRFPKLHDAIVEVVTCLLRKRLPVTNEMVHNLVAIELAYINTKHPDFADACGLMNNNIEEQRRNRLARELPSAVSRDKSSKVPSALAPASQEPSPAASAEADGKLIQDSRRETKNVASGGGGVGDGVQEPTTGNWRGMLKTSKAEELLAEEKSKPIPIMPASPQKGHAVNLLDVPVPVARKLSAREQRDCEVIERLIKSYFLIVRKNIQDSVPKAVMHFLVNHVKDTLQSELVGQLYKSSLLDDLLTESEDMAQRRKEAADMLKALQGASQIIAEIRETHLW

GTPase rate of 100 nM Drp1 with 0, 10, 100 or 1,000 nM Nb (continuous regenerative assay, 37°C); factor of increase after addition of a 10-fold molar excess of D63: 1.7 fold
B1: Drp1-specific nanobody D63 (VHH)
VHH: QVQLVESGGDLVQPGGSLKLSCAVSGVSDSLSSFYLMAWHRQAPGKQREMIADIVSGKATYADSVKGRFTISRDNAENTAYLQMNSLKPEDTAVYYCNVLIQNRSTFQSYWGQGTQVTVSS
